# Test results reported in PMC3617563.
# Legend:
# [1] = target: K48-linked IQF (internally quenched fluorescence) diubiquitin substrate DiUb48-6 (UniProt P0CG48); assay: stopped-flow fluorescence
# [2] = target: K48-linked IQF (internally quenched fluorescence) diubiquitin substrate DiUb48-6 (UniProt P0CG48); assay: other fluorescence titration
binder,measurement,setting,value
C276A USP2 catalytic core (inactive active-site mutant) (domain or fragment) NSKSAQGLAGLRNLGNTAFMNSILQCLSNTRELRDYCLQRLYMRDLHHGSNAHTALVEEFAKLIQTIWTSSPNDVVSPSEFKTQIQRYAPRFVGYNQQDAQEFLRFLLDGLHNEVNRVTLRPKSNPENLDHLPDDEKGRQMWRKYLEREDSRIGDLFVGQLKSSLTCTDCGYCSTVFDPFWDLSLPIAKRGYPEVTLMDCMRLFTKEDVLDGDEKPTCCRCRGRKRCIKKFSIQRFPKILVLHLKRFSESRIRTSKLTTFVNFPLRDLDLREFASENTNHAVYNLYAVSNHSGTTMGGHYTAYCRSPGTGEWHTFNDSSVTPMSSSQVRTSDAYLLFYELASPPSRM,K1 (association constant of the first step),[1],2.33 µM⁻¹
same,K2 (equilibrium constant of the second step),[1],0.59
same,Kd from a fit to a single exponential function,[1],2.42 µM
same,"k1 (first step, association)",[1],0.14 µM⁻¹ s⁻¹
same,"k−1 (first step, dissociation)",[1],0.06 s⁻¹
same,"maximum of kobs,2",[1],0.57 s⁻¹
same,"y-intercept of the linear regression of kobs,1",[1],0.63 s⁻¹
same,Kd,[2],270 nM
